For experiment [1], the target named is glutathione S-transferase (GST) tagged HIV-1 IN (HIV-1). The experiment is described as follows: AlphaScreen or HTRF.
Experiment [2] has as its target HIV-1 integrase fused to mVenus (IN-mVenus), transincorporated into virions as Vpr-IN-mVenus (HIV-1). As to the kind of experiment: FRET or BRET.
For experiment [3] the target is unchanged. As to the kind of experiment: FRET or BRET. The source holds these as a separate data set. A general note: BRET reads energy transfer from a luciferase to a nearby fluorophore.

Read-outs that look alike come from different tables or passages of the source.

In experiment [1], “HIV-1 IN point mutant IN(W108G)-His6 (enzyme)” yielded a fold lower AlphaScreen signal than wild-type IN of 4 fold. For “HIV-1 integrase fused to mTFP1 (IN-mTFP1), transincorporated into virions as Vpr-IN-mTFP1 (enzyme)”, the FRET ratio (r FRET) in experiment [2] came to 1.3; in experiment [3] it was 1.27.

For the origin of these results see PMC4004294.
